The source of these data is the DeepSol protein solubility set.

This series can be described thus: soluble on expression in E. coli; label from the status in PepcDB or PDB records.
Consider “MKKIATATIATAGIATFAFAQHDADAAENNNSGYNPNDPSSYSYSYTIDQQGQYHYTWQGNWNPSNSDQGHTSNGYSNANSTNNNATQSYTTNNQGTGGKGAVSHSTSNSNVKVSTTSAPSNSNGSNSISNTSGSSNNLYTAGQCTYYVYDKVGGKIGSTWGNANNWASAAAASGYTVNNSPASGSVLQSTAGGYGHVAYVENVNSDGSINVSEMNYGQGAGVVTSRTISASEASGYNYIH”, for which the “soluble on expression in E. coli” value is on record as “not soluble”.

Turning to “MGSDKIHHHHHHMSNTQKVPVTILTGFLGSGKTTLLNRILSEEHGKKIAVIENEYGEVGIDQGLVINADEEVFEMSNGCICCTVRGDLIRVLGNLMKRRDKFDYVLVETTGLADPGPVAQTFFMDDEIREEFSLDGIVTLVDAAHIEQQLGRSDESSEQVAFADVLVLNKTDLVSDESLDNLESRLRDMNRMARVIRSKQADVSIDTVLNLSAFDLDQVLQRRPTFLEPEYPFEWTGVFSLEKGRYELTLEEGPDPTMSLVQLLDQGKDETALNTGAESCVRLYAEQEQLMNPGDLVPVGKHVNLQLQSEGTKSFFIDVDKARDIGLFTQHTAEEFNMKLTKVNTPSTDEIDNDQNISTISPIAERVWVAEHEHDDEVGSFAIEREGDVDPEKLNRWLSRLLSEKGVDIFRTKGFISYAGESKRIVFQGVHMLFTAQPDKEWGNEPRRNQLVFIGRNLDEAEMIKEFDKCLV”, the “soluble on expression in E. coli” value was “not soluble”.

In the case of “MASVSFGGLATGLDSNTLISQLMYLERAPERILESKKSTISSQIDVYTQVTNLLNSFKTLAAGMNTATGFMGKTTSVGDSTVATATSSSIASPGSFNLTVNSLAKNERQVVDQGYASADALNFKTGTFTISGVATPITIAEGQNSLQGIASAINASGANVTASIINDGSANPYRLVITGKDTNNYTLNFSGLTGDPASGSAYTTPTITKSGPTYQAGAAASFSVNGIAITKTSNIVTDVIPGVTLTLLKEGGATTTVTVGNDTSGVTKKINDFVGAYNAAMSQINKQSEYNATTKKGGVLSGDSTLRSVKTQLQNVLTTPVAGITGKYSTLADIGITTDRSNGTLTVDATKLADALGSNFNDVVELFTKNGGVSNLDTEKYGVAEQFRKVIDRFTHAYEGPSSTANGIISSRVRGLNDTIKSIDDQIDAMEVRMERKEEALKKQFTAMETLVSSLTTQGNSLISYLYGS”, the “soluble on expression in E. coli” value is reported as “not soluble”.

“SAKGGKGPKGKKITLNVAKNCIKITFDGRKRLDLSKMGITTFPKCILRLSDIDELDLSRNMIRKIPDSIAKFQNLRWLDLHSNYIDKLPESIGQMTSLLFLNVSNNRLTTNGLPVELNQLKNIRTVNLGLNHLDSVPTTLGALKELHEVGLHDNLLTTIPASIAKLPKLKKLNIKRNPFPNADESEMFVDSIKRLENLYLVEEKDMCSSCLQRCQQARDKLNKIKSMAPSAPRKALFSNLVSPNSTAKDAQEEWR”: the “soluble on expression in E. coli” value was “soluble”.

Turning to “MSIEKLKAALPEYAKDIKLNLSSITRSSVLDQEQLWGTLLASAAATRNPQVLADIGAEATDHLSAAARHAALGAAAIMGMNNVFYRGRGFLEGRYDDLRPGLRMNIIANPGIPKANFELWSFAVSAINGCSQCLVAHEHTLRTVGVDREAIFEALKAAAIVSGVAQALATIEALSPS”, the “soluble on expression in E. coli” value was “soluble”.

Turning to “MGSDKIHHHHHHMELGIIYSGEFGKRFVSNLAYPYLCPTFGACGINGCDYCKRYDFSSSIVYAKELAEPQEIGLYVEEPESYLEPFECDIAVAINVHPDILVSLPEIGEFKALIVPACNQNWCLPGLRKQLAEKCGELGIEFASPKPFCSLTGNSGWISRFIDEFKIGRPEFRVERGGDAIKKVEVIKSDPCGSAYFVAKRMTGYIIESKEDFWKEIHQHQCAYPCMASMDRDVELKEAPFHLAGYIMVYQFSTAAGVEAEEFVPEHFREIVCRAR”, the “soluble on expression in E. coli” value is recorded as “not soluble”.

Consider “LDVAKSLDQGLVDRMLQSNTGTDSCPKRLPKGIDSVTLDKIRDLFVGEAALTADEAGEKIGASRTTARRYLEYLISSGELEADLNYGTVGRPERCYKKVIR”, for which the “soluble on expression in E. coli” value is on record as “not soluble”.

With “MHHHHHHSSGRENLYFQGNAVLTWNNEILPNWETMWCSRKVRDLWWQGIPPSVRGKVWSLAIGNELNITHELFDICLARAKERWRSLSTGGSEVENEDAGFSAADREASLELIKLDISRTFPNLCIFQQGGPYHDMLHSILGAYTCYRPDVGYVQGMSFIAAVLILNLDTADAFIAFSNLLNKPCQMAFFRVDHGLMLTYFAAFEVFFEENLPKLFAHFKKNNLTPDIYLIDWIFTLYSKSLPLDLACRIWDVFCRDGEEFLFRTALGILKLFEDILTKMDFIHMAQFLTRLPEDLPAEELFASIATIQMQSRNKKWAQVLTALQKDSREMEKG”, the “soluble on expression in E. coli” value is reported as “soluble”.

Take “MLRFYAMKQITEPGTYEIRGEVAEGDFSWDATNFAGFFYDVNDDVSTESLTVTGLNGGNVIPEGGLVYETTIQMVDYEYSKPSVGWDQFPVLGFFAEEYIPINADKADKLAKLVLDSDDKYTIRTGEQLDLGEGYAIEAKQVDVDGEKVWLEFTKDGEFVDDEIISVVSGSDNTWEVELDDIQDEDDVVVLRVHVNQVFQGAVDSIAQIEGIWLIDYANAMKIESDDEFGDLDNVKINGATLTITNEDTFTLTRDDEVEIGQGMFFKVADTAASDLRYYPFVEKTIDGEVVLEHHHHHH”: the “soluble on expression in E. coli” value was “soluble”.

In the case of “MGNSLHQIKCCTSFIHCQNAAVDAPSIAKTLADYLYPAFFHQDLPAPLKISVTGCPNQCGGGVEADIGISGYFATVPRVDDAGLMAANIDFGHLISGCPVGAIRPRQVEGGTTVVINAERCIRCTSCIQVAPEGIKPGPERFVAIAVGGHGGNNRRGPEMAAVVFSRVPARPLDYAAICERVQRIIACWRDRGKRGERLAGFLERLEHHHHHH”, the “soluble on expression in E. coli” value is recorded as “not soluble”.

As to “MGSDKIHHHHHHVAKVPQRKLLLSEIQLGMRVKLPLSWTNHPFLFNRVDISSAAQIEMIRGLGVPYVLLLSELNPASEVVEEDENVEDEIAAEPERDLKADTRKAIRLSQKRFLENVNNCRNVFGKIVSDPEGAYRLSAALVEDLLSHLQEVEKPFLTLVGMDDSDVSVTQHGVSVAVLAMMMGHALDLSPRELRDIALGSLLHDIGKLKVPDVIRRKRGALTPHEANYLQMHPNFAYDMLNRSGLFPKEVLHIVLHHHEFIDGSGFPDGLTDHKIPITTQIVSLANDYDQQLSGQQISSPQVALGYLFKNRATKHAESLIAILVKILGIYPPGTIVRLSDDSVAKVMMTTKEVSQPQVWACKEDGSEASLRFLSDEGVTVQKAIKAEELSEGAIRTLQVDKGVSFYFSSLQT”, the “soluble on expression in E. coli” value is given as “not soluble”.

For “MEGQSGRCKIVVVGDAECGKTALLQVFAKDAYPGSYVPTVFENYTASFEIDKRRIELNMWDTSGSSYYDNVRPLAYPDSDAVLICFDISRPETLDSVLKKWQGETQEFCPNAKVVLVGCKLDMRTDLATLRELSKQRLIPVTHEQGTVLAKQVGAVSYVECSSRSSERSVRDVFHVATVASLGRGHRQLRRTDSRRGMQRSAQLSGRPDRGNEGEIHKDRAKSCNLM”, the “soluble on expression in E. coli” value is “soluble”.

In the case of “MGSDKIHHHHHHLNNCGMVAWIMTLYTPEKPRGFDLIVIGNDVTFQSGSFGTAEDDLFAAASTYSREHKLPRVNVSVNSGARIGLSTKISKLVKLQLENEDKPEQGFEYIYIDGEHKAQIEGEVVYEELGNGRLKILAVIGAKNEKIGVENLQGSGLIAGETARAYAEVPTYCYVTGRSVGIGAYTARLAHRIVQHKQSHLILTGYEALNTLLGKKVYTSNNQLGGPEVMFRNGVTHAVVDNDLEGIAKVIRWMSFLPTPTEEFPFFSKHGDDCSARDVVIPSDSEQNTYDVRDLIDSKNLSNQTGICDTMSFDEICGDWAKSIVAGRARLCGIPIGVVSSEFRNFSTIVPADPAIDGSQVQNTQRAGQVWYPDSAFKTAEAINDLNKENLPLMIIASLRGFSGGQKDMYDMVLKFGAQIVDALAVYNRPVIVYIPEAGELRGGAWAVLDSKIRPEFIHLVADEKSRGGILEPNAVVGIKFRKPMMMEMMKRSDPTYSKLSSSTEPEAREQLEERYEELSKTYRNASVEFADAHDRWQRMKSVGVVEHVTSLTNSRRLFSELLRNEL”, the “soluble on expression in E. coli” value is “not soluble”.
